# No end group written: not given here.
# Biological target: GST-TβR-I (GST fused to the cytoplasmic part, residues 148-503, of constitutively active TβR-I T204D, FLAG-tagged at the C-terminus), P36897
# Test: cell-based or functional assay
# Sequence of GST-TβR-I (GST fused to the cytoplasmic part, residues 148-503, of constitutively active TβR-I T204D, FLAG-tagged at the C-terminus), P36897 (P36897 148-503 T204D, form in doubt): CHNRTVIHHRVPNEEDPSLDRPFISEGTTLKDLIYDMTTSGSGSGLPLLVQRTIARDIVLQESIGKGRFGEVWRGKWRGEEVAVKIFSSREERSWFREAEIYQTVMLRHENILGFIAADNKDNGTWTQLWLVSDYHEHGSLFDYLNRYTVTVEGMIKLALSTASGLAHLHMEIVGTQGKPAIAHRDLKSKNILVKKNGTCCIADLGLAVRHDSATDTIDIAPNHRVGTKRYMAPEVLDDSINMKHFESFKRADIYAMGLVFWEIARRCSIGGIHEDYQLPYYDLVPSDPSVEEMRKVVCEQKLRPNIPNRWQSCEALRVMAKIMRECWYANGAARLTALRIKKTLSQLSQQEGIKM
"peptide concentration at which the effect was observed, in vitro kinase assay","peptide concentration of maximal inhibition, in vitro kinase assay",Binder
10 µM,200 µM,RQIKIWFQNRRMKWKKTQMGSPSVRCSAMA-OH
10 µM,200 µM,RQIKIWFQNRRMKWKKTQMGSPSVRCSSMS-OH [antp-Sm2S peptide (penetratin fused to the C-terminus of wild-type Smad2)]
